Laboratory results reported in US20180118791.

How the values were obtained:
SFNSYTC = system: T1, SFNSYTC
T1 sequence: SFNSYTC

[1] = system: T2, mutacin 1140 C-terminal carboxyl analog (mu1140-COOH)
T2 sequence: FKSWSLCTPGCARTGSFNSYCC

MutD
Observed mass (Da) after in vitro decarboxylation with MutD, 1 hr (MALDI-TOF) (SFNSYTC): 798 Da | Observed mass (Da) after in vitro decarboxylation with MutD, 1 hr (MALDI-TOF) [1]: 2310 Da | Observed mass (Da) after in vitro decarboxylation with MutD, 10 hr (MALDI-TOF) [1]: 2310 Da
